T1: PTPRT expressed on cells (human, UniProt O14522 26-1441)
T1 construct: whole, on cells
T1 sequence (looked up): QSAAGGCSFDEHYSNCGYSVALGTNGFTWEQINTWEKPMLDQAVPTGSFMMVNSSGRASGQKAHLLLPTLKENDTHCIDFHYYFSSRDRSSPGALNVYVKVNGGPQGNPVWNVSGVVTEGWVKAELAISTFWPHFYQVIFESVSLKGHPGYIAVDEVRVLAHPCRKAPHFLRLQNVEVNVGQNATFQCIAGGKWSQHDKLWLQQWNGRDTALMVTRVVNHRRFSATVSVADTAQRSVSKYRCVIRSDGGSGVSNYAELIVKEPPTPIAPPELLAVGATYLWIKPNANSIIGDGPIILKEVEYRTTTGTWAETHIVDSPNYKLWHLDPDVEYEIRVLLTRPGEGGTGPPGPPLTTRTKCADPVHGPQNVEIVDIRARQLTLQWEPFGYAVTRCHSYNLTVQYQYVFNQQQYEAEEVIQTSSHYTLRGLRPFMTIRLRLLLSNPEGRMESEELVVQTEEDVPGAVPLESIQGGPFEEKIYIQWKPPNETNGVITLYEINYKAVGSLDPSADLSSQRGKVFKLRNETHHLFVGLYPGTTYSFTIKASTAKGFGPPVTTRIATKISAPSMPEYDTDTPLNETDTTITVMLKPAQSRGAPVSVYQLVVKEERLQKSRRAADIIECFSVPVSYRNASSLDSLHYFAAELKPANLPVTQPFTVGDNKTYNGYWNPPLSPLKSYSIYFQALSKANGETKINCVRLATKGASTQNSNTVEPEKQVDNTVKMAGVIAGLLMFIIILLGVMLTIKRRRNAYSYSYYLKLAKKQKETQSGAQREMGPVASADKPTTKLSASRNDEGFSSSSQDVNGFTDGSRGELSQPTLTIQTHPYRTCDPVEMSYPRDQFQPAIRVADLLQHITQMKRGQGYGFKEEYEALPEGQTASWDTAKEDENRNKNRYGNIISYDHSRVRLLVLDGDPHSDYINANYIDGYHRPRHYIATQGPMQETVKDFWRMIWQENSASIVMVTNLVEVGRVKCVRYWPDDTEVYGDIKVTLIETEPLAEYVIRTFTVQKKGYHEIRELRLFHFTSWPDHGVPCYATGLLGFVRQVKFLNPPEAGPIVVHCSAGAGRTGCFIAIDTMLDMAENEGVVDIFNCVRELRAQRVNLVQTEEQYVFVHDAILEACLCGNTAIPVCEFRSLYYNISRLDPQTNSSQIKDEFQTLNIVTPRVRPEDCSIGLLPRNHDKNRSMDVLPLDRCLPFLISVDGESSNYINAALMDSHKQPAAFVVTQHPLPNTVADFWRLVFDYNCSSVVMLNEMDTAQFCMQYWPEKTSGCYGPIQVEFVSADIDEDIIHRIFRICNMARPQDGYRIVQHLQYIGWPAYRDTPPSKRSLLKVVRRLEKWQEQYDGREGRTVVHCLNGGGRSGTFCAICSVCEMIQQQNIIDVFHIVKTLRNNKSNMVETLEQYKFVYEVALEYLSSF

B1: LRFN5 extracellular domain (receptor, human, UniProt Q96NI6 18-529, looked up)
chain: QICPKRCVCQILSPNLATLCAKKGLLFVPPNIDRRTVELRLADNFVTNIKRKDFANMTSLVDLTLSRNTISFITPHAFADLRNLRALHLNSNRLTKITNDMFSGLSNLHHLILNNNQLTLISSTAFDDVFALEELDLSYNNLETIPWDAVEKMVSLHTLSLDHNMIDNIPKGTFSHLHKMTRLDVTSNKLQKLPPDPLFQRAQVLATSGIISPSTFALSFGGNPLHCNCELLWLRRLSREDDLETCASPPLLTGRYFWSIPEEEFLCEPPLITRHTHEMRVLEGQRATLRCKARGDPEPAIHWISPEGKLISNATRSLVYDNGTLDILITTVKDTGAFTCIASNPAGEATQIVDLHIIKLPHLLNSTNHIHEPDPGSSDISTSTKSGSNTSSSNGDTKLSQDKIVVAEATSSTALLKFNFQRNIPGIRMFQIQYNGTYDDTLVYRMIPPTSKTFLVNNLAAGTMYDLCVLAIYDDGITSLTATRVVGCIQFTTEQDYVRCHFMQSQFLGGTM
notes: extracellular domain; Streptavidin tetramer in cell assay; ECD-Fc prey in the variant screen; also called LFRN5
B2: CNTN1 extracellular domain (receptor, human, UniProt Q12860 21-993, looked up)
chain: EFTWYRRYGHGVSEEDKGFGPIFEEQPINTIYPEESLEGKVSLNCRARASPFPVYKWRMNNGDVDLTSDRYSMVGGNLVINNPDKQKDAGIYYCLASNNYGMVRSTEATLSFGYLDPFPPEERPEVRVKEGKGMVLLCDPPYHFPDDLSYRWLLNEFPVFITMDKRRFVSQTNGNLYIANVEASDKGNYSCFVSSPSITKSVFSKFIPLIPIPERTTKPYPADIVVQFKDVYALMGQNVTLECFALGNPVPDIRWRKVLEPMPSTAEISTSGAVLKIFNIQLEDEGIYECEAENIRGKDKHQARIYVQAFPEWVEHINDTEVDIGSDLYWPCVATGKPIPTIRWLKNGYAYHKGELRLYDVTFENAGMYQCIAENTYGAIYANAELKILALAPTFEMNPMKKKILAAKGGRVIIECKPKAAPKPKFSWSKGTEWLVNSSRILIWEDGSLEINNITRNDGGIYTCFAENNRGKANSTGTLVITDPTRIILAPINADITVGENATMQCAASFDPALDLTFVWSFNGYVIDFNKENIHYQRNFMLDSNGELLIRNAQLKHAGRYTCTAQTIVDNSSASADLVVRGPPGPPGGLRIEDIRATSVALTWSRGSDNHSPISKYTIQTKTILSDDWKDAKTDPPIIEGNMEAARAVDLIPWMEYEFRVVATNTLGRGEPSIPSNRIKTDGAAPNVAPSDVGGGGGRNRELTITWAPLSREYHYGNNFGYIVAFKPFDGEEWKKVTVTNPDTGRYVHKDETMSPSTAFQVKVKAFNNKGDGPYSLVAVINSAQDAPSEAPTEVGVKVLSSSEISVHWEHVLEKIVESYQIRYWAAHDKEEAANRVQVTSQEYSARLENLLPDTQYFIEVGACNSAGCGPPSDMIEAFTKKAPPSQPPRIISSVRSGSRYIITWDHVVALSNESTVTGYKVLYRPDGQHDGKLYSTHKHSIEVPIPRDGEYVVEVRAHSDGGDGVVSQVKIS
notes: extracellular domain; Streptavidin tetramer in cell assays; ECD-Fc in SPR; also called contactin 1

What was measured:
PTPRF expressed on cells = target: T2, PTPRF expressed on cells (human, UniProt P10586 30-1907); test: cell surface interaction assay: streptavidin-tetramerized biotinylated ECD on transfected cells, immunofluorescence
T2 construct: whole, on cells; also called receptor-type tyrosine-protein phosphatase F
T2 sequence (P10586 30-1907): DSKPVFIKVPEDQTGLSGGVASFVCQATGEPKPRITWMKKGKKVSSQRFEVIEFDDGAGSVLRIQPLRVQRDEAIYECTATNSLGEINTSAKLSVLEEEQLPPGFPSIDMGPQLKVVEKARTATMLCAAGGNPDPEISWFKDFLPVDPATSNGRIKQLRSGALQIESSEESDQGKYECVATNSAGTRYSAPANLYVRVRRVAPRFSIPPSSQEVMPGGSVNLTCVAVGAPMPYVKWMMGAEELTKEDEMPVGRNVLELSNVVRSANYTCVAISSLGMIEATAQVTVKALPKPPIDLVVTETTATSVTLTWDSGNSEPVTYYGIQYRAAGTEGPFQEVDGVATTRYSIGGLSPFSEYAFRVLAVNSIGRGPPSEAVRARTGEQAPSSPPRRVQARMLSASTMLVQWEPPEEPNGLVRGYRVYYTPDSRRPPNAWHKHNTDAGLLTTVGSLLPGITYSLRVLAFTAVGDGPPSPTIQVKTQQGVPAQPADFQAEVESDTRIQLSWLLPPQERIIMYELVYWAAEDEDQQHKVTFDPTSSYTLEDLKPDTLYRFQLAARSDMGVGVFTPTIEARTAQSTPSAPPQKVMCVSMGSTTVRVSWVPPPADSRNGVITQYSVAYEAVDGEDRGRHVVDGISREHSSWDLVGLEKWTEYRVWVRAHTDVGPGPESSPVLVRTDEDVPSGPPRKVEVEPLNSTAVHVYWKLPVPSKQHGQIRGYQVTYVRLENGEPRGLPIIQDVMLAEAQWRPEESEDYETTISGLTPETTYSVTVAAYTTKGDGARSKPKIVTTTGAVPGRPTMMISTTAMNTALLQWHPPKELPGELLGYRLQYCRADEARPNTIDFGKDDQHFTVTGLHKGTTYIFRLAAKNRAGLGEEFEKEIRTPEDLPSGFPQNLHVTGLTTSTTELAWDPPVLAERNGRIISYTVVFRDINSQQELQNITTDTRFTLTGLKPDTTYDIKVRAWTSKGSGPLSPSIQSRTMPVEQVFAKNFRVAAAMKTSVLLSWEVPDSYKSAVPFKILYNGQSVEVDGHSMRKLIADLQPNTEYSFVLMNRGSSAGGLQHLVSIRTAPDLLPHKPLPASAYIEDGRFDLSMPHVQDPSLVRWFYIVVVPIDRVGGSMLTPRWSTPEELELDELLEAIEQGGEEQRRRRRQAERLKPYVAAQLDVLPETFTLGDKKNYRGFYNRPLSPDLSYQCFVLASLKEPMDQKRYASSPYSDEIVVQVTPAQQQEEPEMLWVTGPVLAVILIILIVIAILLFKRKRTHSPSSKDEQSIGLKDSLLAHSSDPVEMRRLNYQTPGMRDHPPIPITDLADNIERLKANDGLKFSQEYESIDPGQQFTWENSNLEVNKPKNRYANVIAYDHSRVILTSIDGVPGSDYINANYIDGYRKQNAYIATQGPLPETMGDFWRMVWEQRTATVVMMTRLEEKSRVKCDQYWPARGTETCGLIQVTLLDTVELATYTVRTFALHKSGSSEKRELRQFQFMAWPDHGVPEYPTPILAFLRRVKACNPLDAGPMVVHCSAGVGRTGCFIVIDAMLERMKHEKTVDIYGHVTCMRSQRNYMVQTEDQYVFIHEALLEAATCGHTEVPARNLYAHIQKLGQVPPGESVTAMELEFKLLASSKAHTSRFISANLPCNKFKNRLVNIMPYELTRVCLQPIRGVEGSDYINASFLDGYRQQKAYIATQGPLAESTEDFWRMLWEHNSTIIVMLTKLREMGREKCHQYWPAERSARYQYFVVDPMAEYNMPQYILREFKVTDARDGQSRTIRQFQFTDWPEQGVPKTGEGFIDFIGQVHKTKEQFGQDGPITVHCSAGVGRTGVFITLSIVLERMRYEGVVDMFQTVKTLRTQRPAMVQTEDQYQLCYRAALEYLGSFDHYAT

PTPRS expressed on cells [1] = target: T3, PTPRS expressed on cells (human, UniProt Q13332 30-1948); test: as above
T3 construct: whole, on cells; also called receptor-type tyrosine-protein phosphatase S
T3 sequence (Q13332 30-1948): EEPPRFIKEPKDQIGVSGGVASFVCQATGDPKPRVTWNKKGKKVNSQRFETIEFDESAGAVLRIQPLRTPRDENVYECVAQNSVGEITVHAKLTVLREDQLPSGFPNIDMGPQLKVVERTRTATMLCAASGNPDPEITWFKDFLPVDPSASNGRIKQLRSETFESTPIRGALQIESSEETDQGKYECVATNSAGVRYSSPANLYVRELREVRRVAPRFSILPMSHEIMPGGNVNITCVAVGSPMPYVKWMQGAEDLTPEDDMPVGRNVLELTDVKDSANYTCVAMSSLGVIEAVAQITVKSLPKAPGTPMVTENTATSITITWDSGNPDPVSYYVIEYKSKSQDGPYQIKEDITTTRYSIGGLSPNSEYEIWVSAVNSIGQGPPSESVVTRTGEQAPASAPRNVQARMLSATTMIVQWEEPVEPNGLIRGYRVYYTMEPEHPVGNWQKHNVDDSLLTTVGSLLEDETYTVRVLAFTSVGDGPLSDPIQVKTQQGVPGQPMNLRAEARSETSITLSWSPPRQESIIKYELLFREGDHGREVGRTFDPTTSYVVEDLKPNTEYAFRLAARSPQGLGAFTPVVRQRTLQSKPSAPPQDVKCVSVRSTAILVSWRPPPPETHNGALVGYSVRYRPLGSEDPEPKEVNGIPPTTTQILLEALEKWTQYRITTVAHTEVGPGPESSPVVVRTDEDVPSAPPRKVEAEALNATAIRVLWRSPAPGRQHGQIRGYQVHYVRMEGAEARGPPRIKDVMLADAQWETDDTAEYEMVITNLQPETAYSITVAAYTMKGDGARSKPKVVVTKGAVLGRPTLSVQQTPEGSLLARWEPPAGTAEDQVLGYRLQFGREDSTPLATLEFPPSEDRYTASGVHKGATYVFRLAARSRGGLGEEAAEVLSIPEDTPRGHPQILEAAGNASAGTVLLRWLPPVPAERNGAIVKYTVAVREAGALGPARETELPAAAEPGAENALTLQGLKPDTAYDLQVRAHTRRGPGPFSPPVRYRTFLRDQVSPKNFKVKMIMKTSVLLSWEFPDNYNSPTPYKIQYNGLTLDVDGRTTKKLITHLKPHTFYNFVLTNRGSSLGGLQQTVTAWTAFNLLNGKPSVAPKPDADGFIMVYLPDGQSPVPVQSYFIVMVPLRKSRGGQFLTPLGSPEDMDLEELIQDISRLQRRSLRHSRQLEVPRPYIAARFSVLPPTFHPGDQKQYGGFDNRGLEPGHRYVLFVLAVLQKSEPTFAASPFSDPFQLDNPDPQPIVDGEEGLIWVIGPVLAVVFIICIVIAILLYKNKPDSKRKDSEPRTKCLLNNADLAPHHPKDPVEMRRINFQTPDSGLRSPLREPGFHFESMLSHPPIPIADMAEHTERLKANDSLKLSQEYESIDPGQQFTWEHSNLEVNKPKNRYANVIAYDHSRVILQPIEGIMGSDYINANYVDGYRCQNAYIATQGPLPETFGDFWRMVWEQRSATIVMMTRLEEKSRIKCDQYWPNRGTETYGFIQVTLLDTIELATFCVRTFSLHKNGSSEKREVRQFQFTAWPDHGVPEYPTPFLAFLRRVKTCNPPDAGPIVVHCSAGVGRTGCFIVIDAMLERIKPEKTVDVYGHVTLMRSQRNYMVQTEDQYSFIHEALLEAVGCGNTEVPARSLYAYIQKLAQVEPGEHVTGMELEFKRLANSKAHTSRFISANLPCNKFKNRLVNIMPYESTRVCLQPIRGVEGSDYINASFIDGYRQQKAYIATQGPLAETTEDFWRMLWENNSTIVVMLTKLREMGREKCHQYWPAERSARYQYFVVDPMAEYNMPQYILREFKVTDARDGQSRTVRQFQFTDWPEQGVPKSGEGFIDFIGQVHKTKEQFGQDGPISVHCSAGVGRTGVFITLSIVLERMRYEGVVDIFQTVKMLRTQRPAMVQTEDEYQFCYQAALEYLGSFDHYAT

PTPRD expressed on cells = target: T4, PTPRD expressed on cells (human, UniProt P23468 21-1912); test: as above
T4 construct: whole, on cells; also called receptor-type tyrosine-protein phosphatase delta

PTPRT expressed on cells = target: T1, PTPRT expressed on cells; test: cell surface interaction assay: query ECD tetramerised with fluorescent streptavidin on transfected cells, immunofluorescence
PTPRS expressed on cells [2] = target: T3, PTPRS expressed on cells; test: as above
PTPRM expressed on cells = target: T5, PTPRM expressed on cells (human, UniProt P28827 21-1452); test: as above
T5 construct: whole, on cells

| Binder | binding result (PTPRF expressed on cells) | binding result (PTPRS expressed on cells [1]) | binding result (PTPRD expressed on cells) | binding result (PTPRT expressed on cells) | binding result (PTPRS expressed on cells [2]) | binding result (PTPRM expressed on cells) |
| --- | --- | --- | --- | --- | --- | --- |
| B1 | binds | binds | binds | – | – | – |
| B2 | – | – | – | no binding | no binding | no binding |
